The text below walks through data of PMC11194072, “Cdc13 exhibits dynamic DNA strand exchange in the presence of telomeric DNA”.

Data set [1] addresses T1, RPA heterotrimer (Rfa1-3) (Saccharomyces cerevisiae, UniProt P22336;P26754;P26755 1-621;1-273;1-122). The data set is described as follows: EMSA; 2 nM probe; 25 mM HEPES pH 8.0, 5% glycerol, 50 mM NaOAc, 150 mM NaCl, 7.5 mM MgCl2, 0.01% Tween 20; EMSA/DDE at 30°C; BLI without glycerol at ~23°C. The conditions noted are these: protein: recombinant, tags: untagged, copies: 1;1;1, single strand. A general note: A gel shift assay detects complexes by their altered migration in electrophoresis.

Data set [2] has as its target T2, Cdc13 full-length (Sf9) (Saccharomyces cerevisiae, UniProt P32797 1-924).
T2 sequence: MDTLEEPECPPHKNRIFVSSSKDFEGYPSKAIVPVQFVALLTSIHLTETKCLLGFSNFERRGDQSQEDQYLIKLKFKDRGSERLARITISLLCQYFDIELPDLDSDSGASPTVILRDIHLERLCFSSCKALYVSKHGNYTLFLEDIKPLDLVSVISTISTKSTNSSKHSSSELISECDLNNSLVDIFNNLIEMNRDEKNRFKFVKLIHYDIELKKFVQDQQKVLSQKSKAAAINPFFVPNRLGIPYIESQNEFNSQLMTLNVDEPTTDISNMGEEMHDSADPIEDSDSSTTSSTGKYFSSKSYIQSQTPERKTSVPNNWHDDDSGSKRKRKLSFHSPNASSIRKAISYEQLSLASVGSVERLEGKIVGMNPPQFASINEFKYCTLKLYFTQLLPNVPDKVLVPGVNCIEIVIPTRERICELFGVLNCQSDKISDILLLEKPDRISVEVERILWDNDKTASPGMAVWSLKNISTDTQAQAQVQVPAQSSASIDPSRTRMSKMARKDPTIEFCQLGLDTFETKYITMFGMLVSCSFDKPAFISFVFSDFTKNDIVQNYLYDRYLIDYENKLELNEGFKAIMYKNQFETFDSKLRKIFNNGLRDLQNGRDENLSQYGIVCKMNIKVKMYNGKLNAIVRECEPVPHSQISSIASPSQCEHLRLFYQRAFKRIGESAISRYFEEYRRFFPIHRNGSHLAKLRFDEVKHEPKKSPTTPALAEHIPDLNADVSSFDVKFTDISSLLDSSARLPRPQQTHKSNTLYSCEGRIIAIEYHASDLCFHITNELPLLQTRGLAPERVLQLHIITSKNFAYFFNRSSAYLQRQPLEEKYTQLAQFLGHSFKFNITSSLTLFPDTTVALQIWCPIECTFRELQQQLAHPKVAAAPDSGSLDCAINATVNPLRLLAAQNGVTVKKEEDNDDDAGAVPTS
The data set is described as follows: EMSA; 2 nM probe; near probe concentration, not a reliable Kd; 25 mM HEPES pH 8.0, 5% glycerol, 50 mM NaOAc, 150 mM NaCl, 7.5 mM MgCl2, 0.01% Tween 20; EMSA/DDE at 30°C; BLI without glycerol at ~23°C. The conditions noted are these: protein: recombinant; tags: N-terminal SUMO-His6 tag, C-terminal FLAG tag; chain copies: 2; label: 5' IRDye700 or IRDye800; single strand.

Data set [3] addresses T3, Cdc13 OB1 (Saccharomyces cerevisiae, UniProt P32797 1-230).
T3 sequence: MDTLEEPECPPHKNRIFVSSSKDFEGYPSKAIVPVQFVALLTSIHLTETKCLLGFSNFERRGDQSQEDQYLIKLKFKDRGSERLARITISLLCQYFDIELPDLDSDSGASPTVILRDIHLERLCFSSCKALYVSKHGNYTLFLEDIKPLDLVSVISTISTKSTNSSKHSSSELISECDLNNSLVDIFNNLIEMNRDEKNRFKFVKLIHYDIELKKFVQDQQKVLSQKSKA
The experiment in a line: EMSA; 7.8-1000 nM OB1; 25 mM HEPES pH 8.0, 5% glycerol, 50 mM NaOAc, 150 mM NaCl, 7.5 mM MgCl2, 0.01% Tween 20; EMSA/DDE at 30°C; BLI without glycerol at ~23°C. The conditions noted are these: protein: recombinant; tags: N-terminal His6-SUMO, C-terminal 3xFLAG; chain copies: 2; label: 5' IRDye700 or IRDye800; single strand.

Data set [4] concerns the target T2, Cdc13 full-length (Sf9). The data set is described as follows: EMSA; 2 nM fork; 25 mM HEPES pH 8.0, 5% glycerol, 50 mM NaOAc, 150 mM NaCl, 7.5 mM MgCl2, 0.01% Tween 20; EMSA/DDE at 30°C; BLI without glycerol at ~23°C. The conditions noted are these: protein: recombinant; tags: N-terminal SUMO-His6 tag, C-terminal FLAG tag; chain copies: 2; fork 1:2, 20 bp duplex, two 25-nt ssDNA arms.

Data set [5] concerns the target T1, RPA heterotrimer (Rfa1-3). The description is as above. Conditions: protein: recombinant; tags: untagged; copies: 1;1;1; fork 1:2, 20 bp duplex, two 25-nt ssDNA arms.
Data set [6] deals with T2, Cdc13 full-length (Sf9). The data set is described as follows: competition; EC50; prebound IR700-Tel30G 2 nM; 25 mM HEPES pH 8.0, 5% glycerol, 50 mM NaOAc, 150 mM NaCl, 7.5 mM MgCl2, 0.01% Tween 20; EMSA/DDE at 30°C; BLI without glycerol at ~23°C. The conditions noted are these: protein: recombinant; tags: N-terminal SUMO-His6 tag, C-terminal FLAG tag; chain copies: 2; single strand.

Data set [7] has as its target T2, Cdc13 full-length (Sf9). The data set is described as follows: EMSA; IR700-Tel50G prebound; 25 mM HEPES pH 8.0, 5% glycerol, 50 mM NaOAc, 150 mM NaCl, 7.5 mM MgCl2, 0.01% Tween 20; EMSA/DDE at 30°C; BLI without glycerol at ~23°C. The conditions noted are these: protein: recombinant; tags: N-terminal SUMO-His6 tag, C-terminal FLAG tag; chain copies: 2; label: 5' IRDye700; single strand.

For data set [8], the target named is T1, RPA heterotrimer (Rfa1-3). The data set is described as follows: competition; EC50; prebound labelled Tel30G; 25 mM HEPES pH 8.0, 5% glycerol, 50 mM NaOAc, 150 mM NaCl, 7.5 mM MgCl2, 0.01% Tween 20; EMSA/DDE at 30°C; BLI without glycerol at ~23°C. Conditions: protein: recombinant; tags: untagged; copies: 1;1;1; single strand.
The target in data set [9] is T1, RPA heterotrimer (Rfa1-3). The data set is described as follows: competition; EC50; prebound labelled Poly(dT)30; 25 mM HEPES pH 8.0, 5% glycerol, 50 mM NaOAc, 150 mM NaCl, 7.5 mM MgCl2, 0.01% Tween 20; EMSA/DDE at 30°C; BLI without glycerol at ~23°C. Conditions: protein: recombinant; tags: untagged; copies: 1;1;1; single strand.
Data set [10] has as its target T1, RPA heterotrimer (Rfa1-3). The experiment in a line: competition; EC50; prebound labelled Poly(dT)30; text also gives 15 nM; 25 mM HEPES pH 8.0, 5% glycerol, 50 mM NaOAc, 150 mM NaCl, 7.5 mM MgCl2, 0.01% Tween 20; EMSA/DDE at 30°C; BLI without glycerol at ~23°C. The conditions noted are these: protein: recombinant; tags: untagged; copies: 1;1;1; label: none, or 5' IRDye700/800; single strand.

In data set [11] the target is T2, Cdc13 full-length (Sf9). The data set is described as follows: EMSA; 2 nM probe; 25 mM HEPES pH 8.0, 5% glycerol, 50 mM NaOAc, 150 mM NaCl, 7.5 mM MgCl2, 0.01% Tween 20; EMSA/DDE at 30°C; BLI without glycerol at ~23°C. The conditions noted are these: protein: recombinant; tags: N-terminal SUMO-His6 tag, C-terminal FLAG tag; chain copies: 2; label: none, or 5' IRDye700/800; single strand.

The target in data set [12] is T2, Cdc13 full-length (Sf9). The data set is described as follows: competition; prebound IR700-Tel11G, unlabelled Tel11G competes; EC50 only in figure; 25 mM HEPES pH 8.0, 5% glycerol, 50 mM NaOAc, 150 mM NaCl, 7.5 mM MgCl2, 0.01% Tween 20; EMSA/DDE at 30°C; BLI without glycerol at ~23°C. Conditions: protein: recombinant; tags: N-terminal SUMO-His6 tag, C-terminal FLAG tag; chain copies: 2; label: none, or 5' IRDye700; single strand.

For data set [13], the target named is T4, Cdc13 full-length (E. coli) (Saccharomyces cerevisiae, UniProt P32797 1-924).
T4 sequence: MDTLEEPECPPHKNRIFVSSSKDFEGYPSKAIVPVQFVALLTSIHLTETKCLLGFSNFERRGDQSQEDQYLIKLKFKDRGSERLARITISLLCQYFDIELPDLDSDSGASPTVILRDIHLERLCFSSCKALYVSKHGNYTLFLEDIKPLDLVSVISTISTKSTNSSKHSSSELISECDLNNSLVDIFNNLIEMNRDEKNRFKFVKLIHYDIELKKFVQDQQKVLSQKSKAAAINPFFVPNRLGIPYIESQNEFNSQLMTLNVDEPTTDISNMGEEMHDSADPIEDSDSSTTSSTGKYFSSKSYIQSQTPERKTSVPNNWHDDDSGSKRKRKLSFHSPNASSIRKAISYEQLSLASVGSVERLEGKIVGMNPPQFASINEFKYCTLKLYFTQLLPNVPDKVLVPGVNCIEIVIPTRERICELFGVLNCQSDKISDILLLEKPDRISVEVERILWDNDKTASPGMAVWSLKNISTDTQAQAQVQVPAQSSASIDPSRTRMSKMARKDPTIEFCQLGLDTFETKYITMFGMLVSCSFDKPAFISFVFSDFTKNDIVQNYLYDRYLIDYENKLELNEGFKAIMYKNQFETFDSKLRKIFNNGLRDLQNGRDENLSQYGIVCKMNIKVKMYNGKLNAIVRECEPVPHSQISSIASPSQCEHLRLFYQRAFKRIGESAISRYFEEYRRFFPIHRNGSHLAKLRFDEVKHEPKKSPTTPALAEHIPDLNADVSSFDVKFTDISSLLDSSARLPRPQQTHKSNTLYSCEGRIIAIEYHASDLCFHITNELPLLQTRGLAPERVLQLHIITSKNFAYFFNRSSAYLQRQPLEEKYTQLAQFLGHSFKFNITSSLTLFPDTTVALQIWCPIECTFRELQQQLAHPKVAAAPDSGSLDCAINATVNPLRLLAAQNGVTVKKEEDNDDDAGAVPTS
The description is as above. The conditions noted are these: protein: recombinant; tags: N-terminal His6-SUMO, C-terminal 3xFLAG; chain copies: 2; label: none, or 5' IRDye700; single strand.

For data set [14], the target named is T5, Cdc13 OB3 (DBD) (Saccharomyces cerevisiae, UniProt P32797 497-694).
T5 sequence: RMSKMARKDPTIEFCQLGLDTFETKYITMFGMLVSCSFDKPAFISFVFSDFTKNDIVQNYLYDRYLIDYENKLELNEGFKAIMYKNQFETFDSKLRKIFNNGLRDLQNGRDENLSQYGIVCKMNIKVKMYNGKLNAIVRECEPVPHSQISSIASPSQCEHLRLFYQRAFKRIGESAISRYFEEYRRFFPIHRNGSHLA
The experiment in a line: EMSA; 7.5 nM OB3, 2 nM IR700-Tel11G; complex stable to 0.4-50 nM unlabelled Tel11G; 25 mM HEPES pH 8.0, 5% glycerol, 50 mM NaOAc, 150 mM NaCl, 7.5 mM MgCl2, 0.01% Tween 20; EMSA/DDE at 30°C; BLI without glycerol at ~23°C. The conditions noted are these: protein: recombinant; tags: N-terminal His6; label: none, or 5' IRDye700; single strand.

T1 sequence (P22336 whole entry, chain 1 of 3): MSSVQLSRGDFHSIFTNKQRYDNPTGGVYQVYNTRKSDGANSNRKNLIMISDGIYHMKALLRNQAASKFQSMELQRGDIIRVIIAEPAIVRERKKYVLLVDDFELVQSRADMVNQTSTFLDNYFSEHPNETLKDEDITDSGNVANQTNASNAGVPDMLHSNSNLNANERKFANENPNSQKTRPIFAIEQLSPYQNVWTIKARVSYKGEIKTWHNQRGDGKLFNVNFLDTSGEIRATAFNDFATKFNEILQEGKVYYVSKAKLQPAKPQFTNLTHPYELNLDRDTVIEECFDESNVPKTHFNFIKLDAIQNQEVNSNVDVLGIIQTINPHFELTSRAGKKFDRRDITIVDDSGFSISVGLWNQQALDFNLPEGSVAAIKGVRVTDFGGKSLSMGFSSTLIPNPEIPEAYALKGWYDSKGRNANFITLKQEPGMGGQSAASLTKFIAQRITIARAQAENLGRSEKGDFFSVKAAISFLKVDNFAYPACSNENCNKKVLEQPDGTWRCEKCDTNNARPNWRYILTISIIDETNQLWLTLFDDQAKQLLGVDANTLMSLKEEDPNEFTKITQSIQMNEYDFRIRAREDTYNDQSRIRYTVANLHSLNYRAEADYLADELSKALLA
T1 sequence (P26754 whole entry, chain 2 of 3): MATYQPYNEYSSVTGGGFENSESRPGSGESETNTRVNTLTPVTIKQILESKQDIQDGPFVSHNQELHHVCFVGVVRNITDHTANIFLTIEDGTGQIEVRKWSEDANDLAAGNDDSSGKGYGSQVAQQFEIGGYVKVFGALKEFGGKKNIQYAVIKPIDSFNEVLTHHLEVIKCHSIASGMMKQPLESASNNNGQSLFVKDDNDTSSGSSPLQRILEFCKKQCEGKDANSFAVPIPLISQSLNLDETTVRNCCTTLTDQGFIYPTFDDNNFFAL
T1 sequence (P26755 whole entry, chain 3 of 3): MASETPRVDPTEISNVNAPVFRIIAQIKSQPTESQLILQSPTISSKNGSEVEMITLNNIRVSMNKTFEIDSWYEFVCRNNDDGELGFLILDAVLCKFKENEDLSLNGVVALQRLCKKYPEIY

On to CGCCATGCTGATCCGTGTGGTGTGTGTGGG (ssDNA) [Tel30G labelled (MB1930 IR700 / MB1981 IR800)], for which the “apparent K (half saturation)” value in data set [1] (label: 5' IRDye700 or IRDye800) is 2.4 ± 0.5 nM; in data set [2] it was 3.7 ± 0.3 nM; in [3], 830 nM.

B1: Tel25G fork (MB1169/MB1170) (mixed)
DNA 1: GGTGTGGTGTGGGTGTGGTGTGGGTGTGTCACTCACATAGCGTTC
DNA 2: GAACGCTATGTGAGTGACACTGGGTGTGGTGTGGGTGTGGTGTGG
As to B1, the “apparent K (half saturation)” value in [4] was determined as 3.3 ± 0.5 nM; in data set [5], 2.5 ± 0.6 nM.

For orientation: IC50 means the concentration that gives 50% inhibition. Consider GTGTGGGTGTGGTGTGGGTGTGGTGTGGGTGTGTGGGTGTGGTGTGGGTG (ssDNA) [Tel50G unlabelled (MB1117)], for which the IC50 in data set [6] amounted to 0.96 nM.

Consider GTGTGGGTGTGGTGTGGGTGTGGTGTGGGTGTGTGGTGTGGTGTGTGTG (ssDNA) [IR700-Tel50G (MB1931)], for which, in data set [7], the binding result is recorded as “binds”.

In the case of GTGTGGGTGTGGTGTGGGTGTGGTGTGGGT (ssDNA) [Tel30G unlabelled (MB915)], the IC50 in data set [8] worked out at 5.44 nM; in [9], 5.1 nM; in [6], 0.89 nM.

As to TTTTTTTTTTTTTTTTTTTTTTTTTTTTTT (ssDNA) [Poly(dT)30 (MB464 / MB1755 IR700 / MB1982 IR800)], in [10], the IC50 was found to be 15.1 nM. The “apparent K (half saturation)” value in [11] turned out to be 26 ± 3 nM; in data set [1] (label: none, or 5' IRDye700/800) it was 7 ± 0.5 nM.

In the case of GTGTGGGTGTG (ssDNA) [Tel11G (MB1983 / MB2018 IR700)], the binding result in [12], in data set [13] and in [14] was “binds” each time.
